Several values for one entry are separate records, joined by “and”; a condition that tells them apart may be missing. Equal values may be shown once.
Biological target: different PcrV variants and reference strain PAO1 (23 PcrV sequence variants, GST-PcrV-His6)

B1: Nanobody 335 (5H01-40GS-1E11) (VHH)
chain: EVQLVESGGGLVQPGGSLRLSCAASGSTLDYYAIGWFRQAPGKEREGVSCTSNSGSTYYGGSVKGRFTASRDNAKNTVYLQMNSLRPEDTAVYYCVATIGCATLGGTLDVQRYYYRGQGTLVTVSSGGGGSGGGGSGGGGSGGGGSGGGGSGGGGSGGGGSGGGGSEVQLVESGGGLVQPGGSLRLSCAASGSTRSVNPMAWFRQAPGRQREWVATISRSGYATYADSVKGRFTISGDNAKSSVYLQMNSLKPEDTAVYYCVTGTYWGQGTLVTVSS
With B1 the EC50 was 0.07 nM and 0.09 nM.
